In the nanobody polyreactivity screen of Harvey et al. (2022):

Test: yeast display, Sf9 membrane polyspecificity reagent, FACS + sequencing; frameworks hold sequencing errors
Outline: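 Polyreactivity labels are assigned by the sorting gate from which each nanobody was recovered. The gates were low and high (top ~1%), set on anti-HA fluorescence for expression and streptavidin fluorescence for reagent binding. Before sorting, galactose-induced (36–48 hours) yeast display cells were stained for 1 hour at 4 °C with 10% biotinylated, detergent-solubilized Sf9 membrane reagent.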

Row | Sequence | polyreactivity (PSR sort gate)
1 | QVQLVESGGGLVQAGGSLRLSCAASGSIFSSYAMGWYRQAPGKERELVAAISQSGGDTYYADSVKGRFTISRDNAKNTVYLQMNSLKPEDTAVYYCAASFWYYPMDYWGQGTQVTVSS | low polyreactivity
2 | QVQLVESGGGLVQAGGSLRLSCAASGITFGVYGMGWYRQAPGKERELVAAISRTGGSTYYADSVKGRFTISRDNAKNTVYLQMNSLKPEDTAVYYCAADRYRRVAKHGYWGQGTQVTVSS | high polyreactivity
3 | QVQLVESGGGLVQAGGSLRLSCAASGRTFGRYAMGWYRQAPGKERELVATITSGGSTNYADSVKGRFTISRDNAKNTVYLQMNSLKPEDTAVYYCAAEFSPSRWAYSEGALRYNYWGQGTQVNVSS | low polyreactivity
4 | QVQLVESGGGLVQAGGSLRLSCAASGRTSWANVMGWYRQAPGKERELVAAISSSGDSTYYADSVKGRFTISRDNAKNTVYLQMNSLKPEDTAVDYCAAGYELSDLAILDYRYDYWGQGSQVTVSS | low polyreactivity
5 | QVQLVESGGGLVQEGGSLRLSCAASGFTIFQYAMGWYRQAPGKERELVATITSAGSTNYADSVKGRFTISLDNAKNTVYLQMNSLIPEDTAVYYCNTKKLPYAEGYWGQGTQVSVSS | low polyreactivity
6 | QVQLVESGGGLVQAGGSLRLSCAASGIISSVYAMGWYRQARGKERELVAAISGSGGSTYYADSVKGRFTISRDNAKNTVYLQMNSLKPEDTAVYYCAKGYQYQGNSYGYWGQGTQVTVSS | low polyreactivity
7 | QVQLVESGGGLVQAGGRLRLSCPASGLIFSYYAMGWYRQEPGKERELVAAISRGGSTNYADSVKGRFTISRDNAKNTVYLQMNSLKPEDTAVYYCAARFVLRRDYGYWGQGTQVTVSS | high polyreactivity
8 | QVQLVESGGGLVQAGGSLRLSCAASGRTFYVKSMGWYRQAPGKERELVAGISFSDGSTYYADSVKGRFTISRDNAKNTVYLQMNSLKPEDTAVYYCATVGAFDIYYGYGYWGQGTQVTVSS | low polyreactivity
9 | QVQLVESGGGLVQAGGSLRLSCAASGFTFHNYAMGWYRQAPGKERELVAAISASGSSTYYADSVKGRFTISRDNAKNTVYLQMNSLKPEDTAVYYCAAVGRYSPYGYWGQGTQVTVSS | high polyreactivity
10 | QVQLVESGGGLVQAGGSLRLSCAASGRTFATNTMGWSRQAPGKERELVAAITFSGGSTYYADSVKGRFTISRDNAKNTVYLQMNSLKPEDTAVYYCNVRSPYYSYRYRYGYWGQGTQVTVSS | high polyreactivity
11 | QVQLVESGGGLVQAGGSLRLSCAASGRIFAKYAMGWYRQAPGTERELVAAISWGGGSTYYADSVKGRFTISRDNAKNTVYLQMNSLKPEDTAVYYCAARIPKQRDVRGSGMNYWGQGTQVTVSS | high polyreactivity
12 | QVQLVESGGGLVQAGGSLRLSCAASGSIFYLYAMGWYRQAPGKERELVATISTGSGRTYYADSVKGRFTISRDNAKNTVYLQMNSLKPEDTAVYYCAASRTLRKHRYEYWGQGTEVTVSS | high polyreactivity
13 | QVQLVESGGGLVQAGGSLRLSCAASGSTFQRNTMGWYRQAPGKERELVADITWSGGNTYYADSVKGRFTISRDNAKNTVYLQMNSLKPEDTAVYYCAAQNVRVGWHASTSYPCPLDYWGPGTQVTVSS | low polyreactivity
14 | QVQLVESGGGLVQAGGSLRLSCAASGFTFPLNAMGWYRQAPGKEREFVAAITYSGGGTYYADSVKGRFTISRDNAKNTVYLQMNSLKPEDTAVYYCAAERGYQAHPGQGDYWGQGTQVTVSS | high polyreactivity
15 | QVQLVESGGGLVQAGGSLRLSCAASGFTFKNNAMGWYRQAPGKEREFVASISSGSTNYADSVKGRFTISRDNAKYTVYLQMNSLKPEDTEVYYCIRAPYRYSEPDYRSDFWGQGTQVTVSS | low polyreactivity
16 | QVQLVESGGGLVQAGGSLRLSCAASGRTFAPYAMGWYRQAPGKERELVAGITYRTGNTYYADSVKGRFTISRDNAKNTVYLQMNSLKPEDTAVYYCAAYSGYYRPRYNYWGQGTQVTVSS | high polyreactivity
17 | QVQLVESGGGLVQAGGSLRLSCAASGSTFPTNAMGWYRQAPGKERELVAAISQRGDSTSYADSVKGRFTISRDNAKNTVYLQMNSLKPEDTAVYYCAARPLYSYSQWGYGYWGQGTQVTVSS | high polyreactivity
18 | QVQLVESGGGLVQAGGSLRLSCAASGFTFQRYAMGWYRQAPGKERELVAAISGSGGSTYYADSVKGRFTISRDNAKNTVYLQMNSLKPEDTAVYYCAARYKYKDLYRYDYWGQGTQVTVSS | high polyreactivity
19 | QVQLVESGGGLVQAGGSLRLSCAASGSIIDRNAMGWYRQAPGKERELVAAITSGGSTYYADSVKGRFTISRDNAKHTDYLKLNSLKPEDTAVYYCNADTDPPVPLYYWGQGSQVTVSS | low polyreactivity
20 | QVQLVESGVGLVQAGGSLSLSCAASGSTFPKYAMGWYRQAPGKERELVAAISGSGGSTYYADSVKGRFTISRDNAKNTVYLQMNSLKREDTAVYYCAVAWNVRGVGARQRYIYGYWGQGTQVTVSS | high polyreactivity
21 | QVQLEESGGGLDQAGGSLRLSCAASGRIFVFYAMGWYRQAPGKERELVAAITASSTRTYFADSVKGRFTISRDNAKNTVYLQMNSLKPEDTAVYYCAADRYYWGQGTQVTVSS | low polyreactivity
22 | QVQLVESGGGLVQAGGSLRLSCAASGRIFSTYAMGWYRQAPGKERELVAAISWRGGNTYYADSVKGRFTISRDNAKNTVYLQMNSLKPEDTAVFYCAAASFAYPYRNSALDYWGQGTQVTVSS | high polyreactivity

Row | Sequence | polyreactivity (PSR sort gate)
23 | QVQLVESGGGLVQEGGSLRLSCAASGFTFDSNAMGWYRQAPGKERELVAAISTGGSTYYADSVKGRFTISRDNAKNTVYLQMNSLKPEDTAVYYCARDPPYPDTWYGYWGQGTQVTVSS | low polyreactivity
24 | QVQLVESGGGLDQAGGSLRLSCAASGSTLVYNDMGWYRQAPGIEREFVAAIRSNDGSTYYADSVKGRFTISGDNAKNTVYLQMNSLKPEDTAGYYCAVVYGYPYLRGYVYGFNYWGQGTQVTVSS | low polyreactivity
25 | QVQLVESGGGLVQAGGSLRLICAASGRIFRYYAMGWSRQAPGKERELVAAIRSASSTYYADSVNGRFTISRDNAKITVYLKMNSLIPEDTSVYYCADRLYGVYKRRYYYWGQGTQVTVSS | high polyreactivity
26 | QLQLVESGGGLVQAGGSLRLSSAPSGITLQYYAMGWYRQAPGKERELVAAISYRGGRTYYADSVKGRFTISRDNAKNTVYLQMNSLKPEDTAGYYCARRSSKPSSIQYYYWGQGTQVTVSS | high polyreactivity
27 | QVQLVESGGGLVQAGGSLRLSCAASGITFYRYAMGWYRQAPGKERELVAAISTSGGTTYYADSVKERFTISRDNAKNTVYLQMNSLKPEDTAVYYCAAQYLRWSRMDYWGQGTQVTVSS | high polyreactivity
28 | QVQLVESGGGLVQAGGSLRLSCAASGRIFHYNAMGWYRQAPGKERELVAAISTGGSTNYADSVKGRFTISRDNAKNTVYLQMNSLKPEDTAVYYCNADLYVDPWTYFGYDYWGQGTQVTVSS | low polyreactivity
29 | QVQLVESGGGLVQAGCSLRLSCAASGFILTYYLMGWYRQAPGKERELVAAILSGGNTYYADSVKGRFTISRDNAQNTVYLQMNCLKPEDTAVYYFNARPRWSYGLDYWGQGTQVTVSS | high polyreactivity
30 | QVQLVESGGGLVQAGGSLRLSFAASGFTFRNYAMGWYRQAPGKERELVAAISTSGGRTYYADSVKGRFTISRDNAKNTVYLEMNSLKPEDTAVYYCNAGSGSYSYRYNYWGQGTQVTVSS | high polyreactivity
31 | QVQLVESGGGLVQAGGSLRLSCAASGFIFTQYAMGWYRQAPGKERELVAAISTSGGRTFYADSVKGRFTISRDNAKNTVYLQMNSLKPEDTAVYYCGARPGYLYDYWGQGTQVTVSS | high polyreactivity
32 | QVQLVESGGGLVQAGGSLRLSCAASGGTFTYSPMGWDREATGTERELVAAITDGGSTYYAVSVKGRFTISRDNAKTTFYLQMNSLKPEDTAVYYCAVRVRHNSKNTFFPYSYGYWGQGTQVTVSS | low polyreactivity
33 | QVQLVESGGGLVQAGGSLRLSCAASGSTFSVYALGWYRPAPGKERELVAVISSTDDSTYYADSVKGRFTISRDNAKNTVYLQMNSLKPEDTAVYYCAAPDDTTGYDYYYWGQGTQVTVSS | low polyreactivity
34 | QVKLVESVGGLVQAGGSLRLTCAASGIIFPVYAMGRYRQAPGKERQLVSAITYSGDRTYYADSVKGRFTISSDNAKNTVYLQMHSLKPEDTAVYYCNARFGVWPYFYNEDDYWGQGTQVTVSS | low polyreactivity
35 | QVQLVESGGGLVQAGGSLRLSCAASGFTFYYYPMGWYRQAPGKERELVAAITWRGGSTNYADSVKGRFTISRDNAKNTVYLLMISLKPEDTAVYYCAAVTYWFWPGMDYWGQGTQVTVSS | low polyreactivity
36 | QVHLVDSGGGVVVAGGRLRLSCAASVFTFDRNAMGWYRHARGKERALVAAISSSGGRTYYADSVKGRFTISRDNAKNTFYLQMNSLKPEDTAVYYCNAVPSARTQPYNGWGQGSQVTVSS | high polyreactivity
37 | QVKLVESGGGLVQAGGSLRLICAASGRIFVPYAMGWNRQAPWKETELFAAISRSGGSTYYADSVKGRFTISRDNAKNTVYLQMNSLKTEETAVYYCAVYYRRYKEYGYNYWGQGTEVTVSS | high polyreactivity
38 | QVQLVESGGGLVQAGGSLRLSCAASGLIFATYAMGWYRQAPGKERELVAAISIRGGITYYADSVKGRFTISRDNAKNTVYLQMNSLKPEDTAVYYCAARYSRAGISHRMDYWGQGTQVTVSS | high polyreactivity
39 | QVQLVESGGGLVQAGGSLRLSCAASGIIFIYYGMGWYRQAPGKERELVAAIARSGGRTYYADSVKGRFTISRHNAKNTVYLQMHSLKPEETAVYYCATTYTPTGFDYWGQGPQVTVSS | high polyreactivity
40 | QVQLVESGGGLVQAGGSLRLSCAASGRTLRYNTMGWYRQAPGKERELVAAITRSGTGTNYADSVKGRFTISRDNAKNTVYLQMNSLKPEDTAVYYCAAAPFPRRRYDYWGQGTQVTVSS | high polyreactivity
41 | QVQLVESGGGLVQAGGSLRLSCAASGSYTMGWYRQAPGKERELVAAISKSGGSTYYADSVKGRFTISRDNAKNTVYLQMNRLKPEDTAVYYCAAVGWWGTYDYWGQGTQVTVSS | high polyreactivity
42 | QVQLEESGGGLVQPGGSLRLSCAASGRIFADYAMGWYRQAPGKERELVADIRQSGGRTYYADSVKGRFTISRDNAKNTVYLQMNSLKPEDTALYYCATDYGSWGDYSGKYDYWGQGTQVTVSS | low polyreactivity
43 | QVQLVESGGGLVQAGGSLRLSCAASGRIFQYNAMGWYRQAPGKERELVAAITGGGSTYYADSVKGRFTISRDNAKNTVYLQMNSLKPEDTAVYYCNKAWSCSWLLTYGYWGQGTQVTVSS | high polyreactivity
